Consider four molecules from patent US20170267762A1 (APOLLOMICS, published 2017).

Assay [1] deals with T1, human PD-1 on cells (293T cells transfected with human PD-1) (human, UniProt Q15116 25-288).
T1 construct: whole, on cells; Also used as the target for the functional rows, where PD-1 stands on human T cells
The assay is described as follows: FACS binding to 293T cells expressing human PD-1, MFI. The procedure: The cells were incubated with the indicated antibody (20 ug/ml with the dilution of ⅕) at 4° C. for 1 h. Cells were washed three times with FACS buffer. A secondary antibody (PE Goat anti-mouse: 1:200; PE mouse anti-human: 1:10) was added to the cells at 100 ul/well, and incubated at 4° C. for 40min. Cells were washed three times with FACS buffer and analyzed by FACS Array.
A general note: A flow cytometer gives signals particle by particle.

Assay [2] deals with T2, human PD-1 (construct not stated) (human, UniProt Q15116 25-167, limits assumed).
T2 construct: also called PD-1 analyte
T2 sequence (Q15116 25-167 limits assumed): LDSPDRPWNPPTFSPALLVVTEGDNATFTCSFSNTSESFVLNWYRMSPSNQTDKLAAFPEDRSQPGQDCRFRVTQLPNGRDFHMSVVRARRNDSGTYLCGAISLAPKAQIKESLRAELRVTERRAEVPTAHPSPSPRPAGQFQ
The assay is described as follows: SPR (Biacore 3000), antibody captured on the chip, PD-1 as analyte, 1:1 Langmuir fit. The procedure: To characterize the binding characteristics of the humanized antibodies, the binding kinetics between PD-1 and PD-1 antibodies were measured by Biacore3000 and recorded with a data collection rate of 1 Hz. The polyclonal rabbit anti-mouse IgG (GE, BR-1008-38) was diluted with 10 mM pH 5.0 sodium acetate and immobilized onto reference and experiment flow cells of a CMS biosensor chip to around 15000 RU using an amine coupling kit (GE, BR10050). In the beginning of each cycle, diluted test antibody (1.5 μg/mL) was injected over experiment flow cell for 1 minute to be captured. PD-1 analyte series were prepared by diluting the stocks with running buffer to 100nM followed by 2× serial dilution in the same buffer down to 0.78nM. Analytes were injected in series over the reference and experiment flow cells for 3 minutes at a flow rate of 30 μL/minute. Then running buffer (PBS with 0.05% P20) was allowed to flow over for 10 minutes at a flow rate of 30 μL/minute. At the end of each cycle, the biosensor surface was regenerated with 3 minutes injection of 10 mM pH1.7 Glycine-HC1 buffer at a flow rate of 10 μL/minute. For each analyte sample injection (i.e. each cycle), binding responses obtained from the experimental biosensor surface were double referenced by subtracting simultaneously recorded responses from the reference surface followed by additional subtraction of responses from a single referenced running buffer sample. The association and dissociation rate constants (ka and kd) were determined simultaneously by fitting double-referenced sensorgrams of the entire titration series to Langmuir model (1:1) using Biaevaluation 4.0 software. The dissociation constant, KD, was calculated from the determined rate constants by the relation KD =kd/ka. […] The Biocore binding curves are shown in FIGS. 10 and 17A, top panel, and the quantified binding data are summarized in FIGS. 10 and 17A, bottom panel.
(In general: Surface plasmon resonance follows binding to a sensor surface in real time, without labels.)

For assay [3], the target named is T1, human PD-1 on cells (293T cells …). Put plainly: FACS ligand blockage: biotin-labeled PD-L1 binding to 293T cells expressing human PD-1, MFI. The procedure: Various concentrations of the testing hybridoma antibodies were added to the cell suspension and incubated at 4° C. for 60 minutes in 96 well plates. […] Plates were washed 3 times, and mouse anti-biotin PE antibody (Biolgend, cat# 409004) was added. Flow cytometric analyses were performed using a FACS Array.

In assay [4] the target is T3, human PD-1 extracellular domain fused with human Fc tag (hPD-1-hFc) (human).
T3 construct: also called human PD-1-hFc
T3 sequence (chain, as listed by the source limits assumed): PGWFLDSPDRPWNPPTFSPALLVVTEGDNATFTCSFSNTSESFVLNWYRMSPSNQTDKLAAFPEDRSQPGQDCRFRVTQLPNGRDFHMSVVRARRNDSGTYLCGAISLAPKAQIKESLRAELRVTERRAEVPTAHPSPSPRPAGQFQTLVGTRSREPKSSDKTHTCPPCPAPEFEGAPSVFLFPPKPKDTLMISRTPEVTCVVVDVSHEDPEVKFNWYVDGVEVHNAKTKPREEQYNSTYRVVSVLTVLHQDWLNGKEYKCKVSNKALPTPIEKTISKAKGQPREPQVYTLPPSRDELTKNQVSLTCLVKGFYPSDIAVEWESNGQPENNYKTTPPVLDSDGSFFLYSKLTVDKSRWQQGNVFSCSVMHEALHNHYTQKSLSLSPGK
The assay is described as follows: ELISA binding to plate-bound PD-1, OD450 (methods similar to Example 2: plate coated with PD1-hFc). The method, then:
ELISA binding analysis was conducted based on human PD-1-hFc Protein. 96-well plates (Costar, Cat No:9018) were coated with 100 μL of 2 μg/ml PD1-hFc (CrownBio) in coating buffer (PBS, Hyclone, Cat No:SH30256.01B) overnight at 4° C. The wells were aspirated and non-specific binding sites were blocked by adding 200 μL of blocking buffer with 1% (w/v) of bovine serum albumin (BSA, Roche, Cat No: 738328) and incubating for 1 hour at 37° C. After the plates are washed three times with wash buffer (PBS with 0.05%(v/v) Tween20 (Sigma, Cat No:P1379), 100 μL/well of a suitable dilutions of hybridoma supernatant in blocking buffer were added and incubated at room temperature for 1 hour. The plates were washed and incubated with 100 μL/well of Goat anti-Mouse IgG (H+L) (Thermo, Cat No: 31432) in blocking buffer for 60 min. After the plates were washed, 100 μL/well of substrate solution (TMB(eBioscience, Cat No:00-4201-56) was added and the plates were incubated for 2min at room temperature. 100 μL/well of stop solution (2N H2SO4) was added to stop the reaction. The colorimetric signals were developed and read at 450 nm using a Auto Plate SpectraMax Plus (Supplier: Molecular Devices; Model: MNR0643; Software: SoftMax Pro v5.4).
(In general: In an ELISA, binding on a coated surface is turned into a signal by an enzyme label.)

The target in assay [5] is T4, human PD-1 extracellular domain fused with mouse Fc (PD-1-mFc) (human, UniProt Q15116 25-170).
T4 construct: extracellular domain; not used because of the label; also called hPD-1-mFc; human PD-1-mouse Fc fusion protein
T4 sequence (Q15116 25-170): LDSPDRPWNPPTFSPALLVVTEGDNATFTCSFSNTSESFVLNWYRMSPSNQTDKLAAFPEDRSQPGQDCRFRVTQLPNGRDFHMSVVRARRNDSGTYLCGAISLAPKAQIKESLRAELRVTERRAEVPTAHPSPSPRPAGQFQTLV
The assay is described as follows: ELISA ligand blockage: biotinylated PD-L1-mFc binding to plate-bound PD-1, OD450 (methods similar to Example 2: PD-1-mFc coated). The method, then: PD-1-mFc antigen (CrownBio) was suspended in PBS (Hyclone,Cat No:SH30256.01B) buffer (2 ug/ml, 100 ul/ well) and coated on the 96 well plate (costar, Cat No.:9018) 4° C. overnight. Plates were washed 3 times using washing buffer: PBS+0.05% Tween 20(Sigma, Cat No.:P1379). 200 ul of blocking buffer (PBS+1%BSA(Roche, Cat No.:738328)), was added to each well, incubated at 37° C. for 1 hour, and washed 3 times. Various concentrations (suitable dilutions of hybridoma supernatant in PBS) of the anti-PD-1 Abs were added to the wells (100 μl/well) and incubated at 37° C. for 1 hour. […] Secondary antibody (Avidin HRP eBioscience cat No.:E07418-1632, 1:500, 100 ul/well) was added, incubated at 37 ° C. for 0.5 hour, and washed 3 times. TMB (Sigma, Cat No.: T0440, 100 ul/well) was added, and incubated for 3 min at RT. To stop the reaction, 2N H2SO4 (100 ul/well), was added. The colorimetric signals were developed and read at 450 nm using a Auto Plate SpectraMax Plus (Supplier: Molecular Devices; Model: MNR0643; Software: SoftMax Pro v5.4).

Assay [6] addresses T1, human PD-1 on cells (293T cells …). Put plainly: FACS ligand blockage: PD-L1 binding to 293T-PD1 cells.

T1 sequence (Q15116 25-288): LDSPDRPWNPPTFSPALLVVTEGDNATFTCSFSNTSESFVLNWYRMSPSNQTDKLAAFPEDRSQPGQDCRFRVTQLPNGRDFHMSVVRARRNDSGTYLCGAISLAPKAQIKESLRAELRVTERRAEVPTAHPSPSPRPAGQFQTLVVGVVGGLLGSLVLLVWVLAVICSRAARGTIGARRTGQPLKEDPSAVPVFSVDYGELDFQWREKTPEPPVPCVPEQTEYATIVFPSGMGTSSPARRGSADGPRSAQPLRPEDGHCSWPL

B1: humanized 13F1-hIgG4 (antibody)
heavy: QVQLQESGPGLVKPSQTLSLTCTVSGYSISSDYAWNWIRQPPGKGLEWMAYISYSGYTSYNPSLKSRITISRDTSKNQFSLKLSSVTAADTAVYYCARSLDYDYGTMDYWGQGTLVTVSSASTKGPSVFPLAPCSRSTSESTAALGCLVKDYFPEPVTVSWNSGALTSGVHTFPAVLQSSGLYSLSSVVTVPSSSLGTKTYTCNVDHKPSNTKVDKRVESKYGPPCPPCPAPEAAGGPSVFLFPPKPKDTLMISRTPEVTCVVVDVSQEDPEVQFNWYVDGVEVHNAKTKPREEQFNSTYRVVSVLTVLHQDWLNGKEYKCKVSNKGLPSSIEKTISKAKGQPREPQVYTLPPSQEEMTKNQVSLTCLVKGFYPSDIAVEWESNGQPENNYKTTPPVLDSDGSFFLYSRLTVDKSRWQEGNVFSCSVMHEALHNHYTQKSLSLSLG
light: EIVLTQSPATLSLSPGERATLSCRANSSVSSMHWYQQKPGQSPEPWIYAISNLAFGVPARFSGSGSGTDYTLTISSLEPEDFAVYYCQQWSSRPPTFGQGTKLEIKRTVAAPSVFIFPPSDEQLKSGTASVVCLLNNFYPREAKVQWKVDNALQSGNSQESVTEQDSKDSTYSLSSTLTLSKADYEKHKVYACEVTHQGLSSPVTKSFNRGEC
notes: IgG4 constant region with F234A and L235A, already in the entry; also called h13F1-IgG4; hu-13F1-hIgG4
As to B1, the EC50 (commonly the concentration giving half of the maximal effect) in assay [1] came out at 0.0763 µg/mL. For the same molecule, in assay [2], the Ka came to 5.78e+09 M⁻¹; the Kd (commonly the concentration at which binding is half-saturated) turned out to be 173 pM; the koff – broadly, the first-order rate constant of dissociation – turned out to be 0.000119 s⁻¹; the on-rate constant (kon) (commonly a measure of how fast the partners come together) worked out at 687000 M⁻¹ s⁻¹. Besides, the IC50 (usually the concentration needed to halve the response being measured) in assay [3] was determined as 0.026 µg/mL. The EC50 in assay [4] is 0.031 µg/mL. This molecule had an IC50 in assay [5] of 0.579 µg/mL.

B2: humanized 7A4-hIgG1 (antibody)
heavy: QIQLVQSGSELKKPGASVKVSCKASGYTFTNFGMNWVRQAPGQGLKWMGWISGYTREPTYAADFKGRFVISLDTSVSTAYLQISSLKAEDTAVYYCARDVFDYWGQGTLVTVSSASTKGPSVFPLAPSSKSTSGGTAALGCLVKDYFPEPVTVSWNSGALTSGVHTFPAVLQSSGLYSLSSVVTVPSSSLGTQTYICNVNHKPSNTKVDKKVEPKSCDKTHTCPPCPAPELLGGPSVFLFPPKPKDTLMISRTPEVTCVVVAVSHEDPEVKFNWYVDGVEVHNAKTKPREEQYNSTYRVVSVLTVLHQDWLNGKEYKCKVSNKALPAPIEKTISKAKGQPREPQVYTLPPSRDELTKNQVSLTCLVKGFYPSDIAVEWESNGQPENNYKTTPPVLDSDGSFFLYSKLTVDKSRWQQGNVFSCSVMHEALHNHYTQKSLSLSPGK
light: DIVLTQSPASLAVSPGQRATITCRASESVDNYGYSFMNWFQQKPGQPPKLLIYRASNLESGVPARFSGSGSRTDFTLTINPVEANDTANYYCQQSNADPTFGQGTKLEIKRTVAAPSVFIFPPSDEQLKSGTASVVCLLNNFYPREAKVQWKVDNALQSGNSQESVTEQDSKDSTYSLSSTLTLSKADYEKHKVYACEVTHQGLSSPVTKSFNRGEC
notes: IgG1 constant region with D265A, already in the entry; also called h7A4-IgG1; hu-7A4-D265A-hIgG1
Molecule B2 came in with an EC50 in assay [1] of 0.0332 µg/mL. In assay [2], this molecule displayed a Ka of 9.82e+09 M⁻¹, a Kd of 102 pM, a koff of 0.000212 s⁻¹ and a kon of 2.09e+06 M⁻¹ s⁻¹. The IC50 in assay [3] stood at 0.00761 µg/mL. The response in assay [4] was half-maximal at 0.0331 µg/mL (EC50). The same molecule had an IC50 in assay [5] of 0.763 µg/mL.

B3: humanized 7A4D-hIgG4 (antibody, V domains shown)
VH: QIQLVQSGSELKKPGASVKVSCKASGYTFTNFGMNWVRQAPGQGLKWMGWISGYTREPTYAADFKGRFVISLDTSVSTAYLQISSLKAEDTAVYYCARDVFDYWGQGTLVTVSS
VL: DIVLTQSPASLAVSPGQRATITCRASESVDNYGYSFMNWFQQKPGQPPKLLIYRASNLESGVPARFSGSGSRTDFTLTINPVEADDTANYYCQQSNADPTFGQGTKLEIKR
notes: also called h7A4D
Consider B3, for which, in assay [6], the IC50 turned out to be 0.0258 µg/mL. In assay [2], the Ka is 2.55e+09 M⁻¹, the Kd came to 391 pM, the koff is 0.000532 s⁻¹ and the association rate constant (kon) turned out to be 1.36e+06 M⁻¹ s⁻¹.

B4: humanized 7A4-hIgG4 (antibody)
heavy: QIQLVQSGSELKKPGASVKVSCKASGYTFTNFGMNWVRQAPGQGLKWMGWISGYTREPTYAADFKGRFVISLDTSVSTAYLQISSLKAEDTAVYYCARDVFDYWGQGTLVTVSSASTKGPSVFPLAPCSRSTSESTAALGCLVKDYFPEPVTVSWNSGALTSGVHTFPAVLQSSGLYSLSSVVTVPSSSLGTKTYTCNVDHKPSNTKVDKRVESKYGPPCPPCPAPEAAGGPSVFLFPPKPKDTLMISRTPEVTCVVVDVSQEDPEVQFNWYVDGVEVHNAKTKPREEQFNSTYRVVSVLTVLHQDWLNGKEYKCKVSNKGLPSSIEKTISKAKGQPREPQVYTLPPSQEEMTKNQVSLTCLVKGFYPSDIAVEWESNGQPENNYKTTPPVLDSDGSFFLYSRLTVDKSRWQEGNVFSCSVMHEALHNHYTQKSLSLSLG
light: DIVLTQSPASLAVSPGQRATITCRASESVDNYGYSFMNWFQQKPGQPPKLLIYRASNLESGVPARFSGSGSRTDFTLTINPVEANDTANYYCQQSNADPTFGQGTKLEIKRTVAAPSVFIFPPSDEQLKSGTASVVCLLNNFYPREAKVQWKVDNALQSGNSQESVTEQDSKDSTYSLSSTLTLSKADYEKHKVYACEVTHQGLSSPVTKSFNRGEC
notes: IgG4 constant region with F234A and L235A, already in the entry; also called h7A4-IgG4; 7A4-huIgG4
Molecule B4 gave a concentration for a half-maximal effect (EC50) in assay [1] of 0.0621 µg/mL. For the same molecule, in assay [2], the Ka worked out at 2.93e+09 M⁻¹; the affinity, expressed as Kd, was 342 pM; the koff was 0.000498 s⁻¹; the kon was 1.46e+06 M⁻¹ s⁻¹. In addition, in assay [3], the IC50 is 0.0169 µg/mL. Moreover, the response in assay [4] was half-maximal at 0.0707 µg/mL (EC50). The IC50 in assay [5] came out at 0.886 µg/mL.
